# ± gives the standard deviation of the averaged measurements.
# Tests used:
# [1] = tested on: Saccharomyces cerevisiae; assay: protein stability index of tFT-peptide fusion (C-terminal peptide) (PSI (0-1 scale)); higher = more stable (slower turnover); conditions: genetic background: wild type; temperature: 30 C
# [2] = tested on: Saccharomyces cerevisiae; assay: as above
# Description: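 MPS profiling in S. cerevisiae of the tFT-X12 degron library: putative degron peptides plus stable controls, 12 aa, fused to the C-terminus of a sfGFP-mCherry timer. Cells are FACS-sorted into 8 mCherry/sfGFP bins and deep-sequenced. PSI runs from 0 (unstable) to 1 (stable). Backgrounds are wild type, das1Δ and doa10Δ at 30 °C, and wild type, das1Δ, cdc34-1 and cdc53-1 at 37 °C; 2-3 technical replicates each.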
# [3] = genetic background: cdc34-1, temperature: 37 C
# [4] = genetic background: cdc53-1, temperature: 37 C
# [5] = genetic background: das1 deletion, temperature: 30 C
# [6] = genetic background: das1 deletion, temperature: 37 C
# [7] = genetic background: doa10 deletion, temperature: 30 C
# [8] = genetic background: wild type, temperature: 30 C
# [9] = genetic background: wild type, temperature: 37 C
# 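Also: PSI is a weighted mean of sequencing reads over stability bins, variants kept only with over 10 reads, mCherry proximal and sfGFP distal, peptide attached via GGGS linker.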
Sequence,protein stability index [1],"protein stability index [2, 3]","protein stability index [2, 4]","protein stability index [2, 5]","protein stability index [2, 6]","protein stability index [2, 7]","protein stability index [2, 8]","protein stability index [2, 9]"
KSARLYVTSFLC,0.194 ± 0.0022,0.571 ± 0.0067,0.682 ± 0.035,0.623 ± 0.012,0.739 ± 0.023,0.107 ± 0.012,0.123 ± 0.0064,0.179 ± 0.02
KTRQLINKITQM,0.254 ± 0.072,0.6601 ± 0.00086,0.693 ± 0.019,0.62 ± 0.018,0.7358 ± 0.0036,0.137 ± 0.024,0.153 ± 0.031,0.288 ± 0.031
KYCPCIPLLIAL,0.429 ± 0.0047,0.406 ± 0.0064,0.381 ± 0.012,0.339 ± 0.036,0.5 ± 0.012,0.387 ± 0.013,0.329 ± 0.033,0.443 ± 0.012
LAVRSGFPFGLF,0.249 ± 0.0026,0.642 ± 0.034,0.757 ± 0.013,0.674 ± 0.012,0.783 ± 0.036,0.117 ± 0.017,0.122 ± 0.03,0.224 ± 0.014
LCLLHCSICISF,0.388 ± 0.014,0.352 ± 0.026,0.4113 ± 0.0012,0.301 ± 0.027,0.44881 ± 0.00028,0.285 ± 0.015,0.295 ± 0.036,0.4142 ± 0.0008
LCLLIHFWISHL,0.244 ± 0.023,0.302 ± 0.0069,0.44 ± 0.009,0.295 ± 0.028,0.43 ± 0.019,0.167 ± 0.0048,0.173 ± 0.013,0.2932 ± 0.0011
LCVFFRCFFVGG,0.514 ± 0.028,0.529 ± 0.046,0.588 ± 0.022,0.457 ± 0.015,0.608 ± 0.0094,0.433 ± 0.017,0.448 ± 0.018,0.5722 ± 0.0043
LCWRLCRFWWVG,0.363 ± 0.016,0.75 ± 0.068,0.8494 ± 0.0062,0.691 ± 0.033,0.829 ± 0.014,0.255 ± 0.0076,0.254 ± 0.024,0.424 ± 0.013
LDHGRVVWVVVS,0.278 ± 0.022,0.371 ± 0.036,0.43 ± 0.021,0.3 ± 0.034,0.493 ± 0.0092,0.174 ± 0.011,0.201 ± 0.023,0.284 ± 0.008
LDRLTTWTLIVR,0.471 ± 0.031,0.457 ± 0.031,0.455 ± 0.011,0.379 ± 0.026,0.524 ± 0.0076,0.413 ± 0.0057,0.365 ± 0.021,0.482 ± 0.0083
LERLHSVLLLTS,0.284 ± 0.021,0.246 ± 0.0054,0.254 ± 0.0079,0.223 ± 0.036,0.379 ± 0.0057,0.165 ± 0.019,0.217 ± 0.027,0.324 ± 0.011
LFFLPPCYWFLL,0.489 ± 0.019,0.665 ± 0.023,0.773 ± 0.024,0.5834 ± 0.0043,0.732 ± 0.049,0.384 ± 0.034,0.392 ± 0.03,0.571 ± 0.013
LFFWWVAVVFRV,0.23 ± 0.038,0.0928 ± 0.025,0.0916 ± 0.006,0.156 ± 0.049,0.236 ± 0.029,0.204 ± 0.016,0.133 ± 0.02,0.189 ± 0.014
LFLVFIGLFFLT,0.413 ± 0.012,0.348 ± 0.011,0.429 ± 0.035,0.359 ± 0.061,0.46 ± 0.011,0.338 ± 0.011,0.327 ± 0.015,0.441 ± 0.01
LFRFSRLFLFVL,0.207 ± 0.061,0.36 ± 0.034,0.446 ± 0.11,0.578 ± 0.0093,0.74 ± 0.028,0.214 ± 0.042,0.153 ± 0.034,0.201 ± 0.017
LFRRMWVEIFYV,0.253 ± 0.046,0.439 ± 0.044,0.541 ± 0.043,0.423 ± 0.029,0.566 ± 0.015,0.0969 ± 0.016,0.119 ± 0.0081,0.155 ± 0.021
LGKSTLYMALNN,0.402 ± 0.047,0.587 ± 0.057,0.716 ± 0.036,0.611 ± 0.011,0.695 ± 0.017,0.273 ± 0.013,0.309 ± 0.038,0.571 ± 0.11
LGVLVVCFNATY,0.354 ± 0.013,0.24 ± 0.0032,0.343 ± 0.0057,0.27 ± 0.014,0.42063 ± 0.00021,0.2506 ± 0.00074,0.264 ± 0.02,0.376 ± 0.017
LHLTFRLAVLYY,0.338 ± 0.032,0.3205 ± 0.002,0.355 ± 0.0097,0.293 ± 0.037,0.395 ± 0.03,0.317 ± 0.029,0.275 ± 0.021,0.371 ± 0.039

# From the supplement of paper PMC10724198
